Tests used:
Assay in all cases: Flow cytometry of anti-FZD5 Fab binding to CHO cells overexpressing Frizzled CRD
FZD2 CRD = molecular target: T1, FZD2 CRD (Homo sapiens, UniProt Q14332)
T1 construct: D35-P161; GPI anchor signal (C); expressed in transfected cells; host or cells: CHO cells, lentiviral pLenti-puro
Experimental: (§1) Plasmids: pLCKO lentiviral vector used for knockout (TKO) library construction and expression of individual gRNAs was constructed as described previously (Hart et al., 2015). Briefly, single guide RNA (sgRNA) scaffold was amplified from px330 (Addgene 42230) and cloned into pLKO.TRC005 lentiviral vector (Broad Institute, Cambridge, Mass.) using AgeI/EcoRI restriction sites. BfuAI sites were added at the 5′ end of the sgRNA scaffold for cloning the TKO library or individual gRNA target sequences. Lenti Cas9-2A-BsdR vector used to generate Cas9 stable expression cell lines was constructed as described previously (Hart et al., 2015). Briefly, lentiCRISPR pXPR_001 (Addgene 49535) was modified through removal of the sgRNA scaffold region through NdeI/EcoRI digest and blunt ends generation using Large Klenow Fragment (NEB). 2A-puro was replaced with 2A-BsdR by PCR using the NheI/MluI sites. Each of the 10 human Frizzled cysteine rich domains (CRDs) were cloned into the lentiviral expression plasmid pLenti-puro in the following cassette: FZD_CRD-MYC-GPI.
(§2) Flow cytometry: Primary staining of cells was performed by treatment with 200 nM Frizzled profiler Fab. Alexa Fluor 488 AffiniPure F(ab′)2 was used as the secondary antibody (Jackson ImmunoResearch #109-546-097). c-Myc (9E10) IgG1 (primary antibody, Santa Cruz, lot #D0306) and Alexa Fluor 488 IgG (secondary antibody, Life technologies, lot #1458649) were used as controls. Dead cells were excluded by staining with Fixable Viability Dye eFluor 660 (eBioscience, catalogue number 65-0864). All reagents were used as per manufacturer's instructions. Flow cytometry was performed on a BD FACSCanto II flow cytometer (BD Biosciences), and data were analyzed with FlowJo software (FlowJo, LLC).
(§3) To confirm that the FZD5-WNT7B circuit is not driven simply by expression and rule out the possibility of a disconnect between RNA and protein levels for the Wnt receptors in HPAF-II cells, a panel of recombinant Fabs were generated, alternatively referred to herein as ‘Frizzled profiler’, that can detect and discriminate all but one of the ten Frizzled receptors. […] To characterize the binding specificity of these Fabs on cells, a panel of 10 CHO cell lines was generated, each expressing the CRD domain of a different myc-tagged Frizzled family member anchored at the plasma membrane through a GPI anchor (CHO-myc-FZDGPI). Despite the high sequence identity between Frizzled family members (FIG. 7A, FIG. 7B), selective Fabs were identified for FZD4, FZD5, FZD6 and FZD10 as assessed by immunofluorescence and flow cytometry (FIG. 7D and FIG. 8). […] The FZD8 CRD is most homologous to that of FZD5 (FIG. 7B). These Fabs can be used to discriminate expression of FZD1, FZD2, FZD4, FZD5, FZD6, FZD7, FZD8, FZD9 and FZD10 (FIG. 7D and FIG. 8). The ‘Frizzled profiler’ therefore consists of 10 different Fabs that can be used to discriminate expression of 9 different Frizzled family members. The Frizzled profiler was then used to confirm that HPAF-II cells express FZD1, FZD5, FZD6 and possibly FZD8 (FIG. 7E).
(§4) The binding of anti-FZD5 Fabs to cell surface-expressed Frizzled protein was further determined for each member of the Frizzled family via flow cytometry and immunofluorescence analysis of a panel of 10 CHO cell lines, each ectopically over-expressing the extracellular cysteine-rich domain (CRD) of a different Frizzled protein family member.

FZD3 CRD = molecular target: T2, FZD3 CRD (Homo sapiens, UniProt Q9NPG1)
T2 construct: CRD of FZD1, FZD2, FZD3, FZD4, FZD5, FZD6, FZD7, FZD8, FZD9 or FZD10; GPI anchor signal (C); expressed in transfected cells; host or cells: CHO cells, lentiviral pLenti-puro
T2 sequence (Q9NPG1 23-136 limits assumed): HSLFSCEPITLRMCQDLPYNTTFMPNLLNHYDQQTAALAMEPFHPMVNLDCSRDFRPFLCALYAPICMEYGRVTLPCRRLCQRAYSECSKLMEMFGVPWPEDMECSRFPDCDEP
Experimental: as §1, §2, §3, §4

FZD6 CRD = molecular target: T3, FZD6 CRD (Homo sapiens, UniProt O60353)
T3 construct: S20-P146; GPI anchor signal (C); expressed in transfected cells; host or cells: CHO cells, lentiviral pLenti-puro
T3 sequence (O60353 20-146): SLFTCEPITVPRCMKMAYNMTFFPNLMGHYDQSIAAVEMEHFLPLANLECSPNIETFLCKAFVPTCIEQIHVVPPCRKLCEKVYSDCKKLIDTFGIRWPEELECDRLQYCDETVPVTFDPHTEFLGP
Experimental: as §1, §2, §3, §4

FZD7 CRD = molecular target: T4, FZD7 CRD (Homo sapiens, UniProt O75084)
T4 construct: D45-S169; GPI anchor signal (C); expressed in transfected cells; host or cells: CHO cells, lentiviral pLenti-puro
Experimental: as §1, §2, §3, §4

FZD5 CRD = molecular target: T5, FZD5 CRD (Homo sapiens, UniProt Q13467)
T5 construct: K29-T156; GPI anchor signal (C); expressed in transfected cells; host or cells: CHO cells, lentiviral pLenti-puro
T5 sequence (Q13467 29-156): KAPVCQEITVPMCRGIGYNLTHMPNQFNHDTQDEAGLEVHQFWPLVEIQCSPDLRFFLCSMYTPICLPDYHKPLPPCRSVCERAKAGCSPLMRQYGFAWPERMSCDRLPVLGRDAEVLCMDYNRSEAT
Experimental: as §1, §2, §3, §4

FZD8 CRD = molecular target: T6, FZD8 CRD (Homo sapiens, UniProt Q9H461)
T6 construct: K31-D155; GPI anchor signal (C); expressed in transfected cells; host or cells: CHO cells, lentiviral pLenti-puro
T6 sequence (Q9H461 31-155): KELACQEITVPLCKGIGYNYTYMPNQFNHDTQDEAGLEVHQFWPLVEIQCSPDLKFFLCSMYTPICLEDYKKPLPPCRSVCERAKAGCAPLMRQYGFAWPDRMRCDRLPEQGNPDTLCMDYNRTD
Experimental: as §1, §2, §3, §4

FZD9 CRD = molecular target: T7, FZD9 CRD (Homo sapiens, UniProt O00144)
T7 construct: G35-A161; GPI anchor signal (C); expressed in transfected cells; host or cells: CHO cells, lentiviral pLenti-puro
T7 sequence (O00144 35-161): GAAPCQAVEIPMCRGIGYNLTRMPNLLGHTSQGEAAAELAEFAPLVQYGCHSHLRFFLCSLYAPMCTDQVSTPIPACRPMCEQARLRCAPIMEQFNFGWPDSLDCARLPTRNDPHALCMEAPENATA
Experimental: as §1, §2, §3, §4

Median fluorescence, Frizzled CRD overexpressed on CHO cells: FZD2 (FZD2 CRD): 4.7
Median fluorescence, Frizzled CRD overexpressed on CHO cells: FZD3 (FZD3 CRD): 3.49
Median fluorescence, Frizzled CRD overexpressed on CHO cells: FZD6 (FZD6 CRD): 2.89
Median fluorescence, Frizzled CRD overexpressed on CHO cells: FZD7 (FZD7 CRD): 9.14
Median fluorescence, Frizzled CRD overexpressed on CHO cells: FZD5 (FZD5 CRD): 28.13
Median fluorescence, Frizzled CRD overexpressed on CHO cells: FZD8 (FZD8 CRD): 7.43
Median fluorescence, Frizzled CRD overexpressed on CHO cells: FZD9 (FZD9 CRD): 2.76
Substance: Fab-2931: anti-FZD5 Fab with antibody variable region Fv-2931; CDR SEQ ID NOs: 35, 36, 70, 102, 146, 176 (CDR 1 QSVSSA; CDR 2 SAS; CDR 3 QQSSYSLIT; CDR 4 GFNLSYSS; CDR 5 ISPYSGST; CDR 6 ARGSYWYVGGGWWVSGHGGMDY)

— patent publication US20210253718A1, “FRIZZLED5 PROTEIN-BINDING AGENTS” (Modmab Therapeutics Corporation, priority 2016, published 2021)
